Measurements from PMC5712524, “Mechanism of early light signaling by the carboxy-terminal output module of Arabidopsis phytochrome B” (Nature Communications, 2017).
Values belong to the binder of their own block, whether it stands above or below them.

Tests used:
[1] = target: T1, GST-PIF3 (Arabidopsis, UniProt O80536 1-524); experiment: pull-down; GST pull-down: immobilized GST-PIF3 pulls down HA-tagged PHYB in the Pr form; anti-HA immunoblot; procedure as ref. 33; conditions: one partner purified
T1 construct: the construct is not described here
T1 sequence (looked up): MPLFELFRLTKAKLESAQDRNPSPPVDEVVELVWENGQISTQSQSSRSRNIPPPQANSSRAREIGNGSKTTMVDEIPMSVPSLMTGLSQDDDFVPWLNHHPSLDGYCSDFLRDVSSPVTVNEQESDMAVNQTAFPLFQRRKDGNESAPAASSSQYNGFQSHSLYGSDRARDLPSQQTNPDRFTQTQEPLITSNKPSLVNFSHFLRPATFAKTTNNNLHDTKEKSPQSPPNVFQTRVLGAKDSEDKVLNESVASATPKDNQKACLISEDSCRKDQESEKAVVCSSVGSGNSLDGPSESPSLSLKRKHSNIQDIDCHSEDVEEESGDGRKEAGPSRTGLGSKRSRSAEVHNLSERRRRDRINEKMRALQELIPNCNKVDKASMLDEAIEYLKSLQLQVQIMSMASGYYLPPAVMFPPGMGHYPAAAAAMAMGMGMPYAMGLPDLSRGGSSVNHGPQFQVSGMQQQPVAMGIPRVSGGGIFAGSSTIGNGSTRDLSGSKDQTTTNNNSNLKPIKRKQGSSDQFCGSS

[2] = target: the molecule itself; experiment: co-IP; in vitro co-immunoprecipitation: HA-tagged bait and Myc-tagged prey co-expressed in TNT T7 reticulocyte lysate, anti-HA Affinity Matrix, E buffer (50 mM Tris-HCl pH 7.5, 100 mM NaCl, 1 mM EDTA, 1 mM EGTA, 1% DMSO, 2 mM DTT, 0.1% Nonidet P-40), 4 °C 2 h; anti-Myc immunoblot
[3] = target: T1, GST-PIF3; experiment: pull-down; GST pull-down: immobilized GST-PIF3 pulls down HA-tagged PHYB as apoprotein; anti-HA immunoblot; procedure as ref. 33; conditions: one partner purified

interaction relative to that of PHYB-HA [1]: ~0.33 fraction of wild type
B1: PHYB18-HA (PHYB D1040V), Pr or Pfr form (natural protein, Arabidopsis, UniProt P14713 1-1172, looked up)
chain: MVSGVGGSGGGRGGGRGGEEEPSSSHTPNNRRGGEQAQSSGTKSLRPRSNTESMSKAIQQYTVDARLHAVFEQSGESGKSFDYSQSLKTTTYGSSVPEQQITAYLSRIQRGGYIQPFGCMIAVDESSFRIIGYSENAREMLGIMPQSVPTLEKPEILAMGTDVRSLFTSSSSILLERAFVAREITLLNPVWIHSKNTGKPFYAILHRIDVGVVIDLEPARTEDPALSIAGAVQSQKLAVRAISQLQALPGGDIKLLCDTVVESVRDLTGYDRVMVYKFHEDEHGEVVAESKRDDLEPYIGLHYPATDIPQASRFLFKQNRVRMIVDCNATPVLVVQDDRLTQSMCLVGSTLRAPHGCHSQYMANMGSIASLAMAVIINGNEDDGSNVASGRSSMRLWGLVVCHHTSSRCIPFPLRYACEFLMQAFGLQLNMELQLALQMSEKRVLRTQTLLCDMLLRDSPAGIVTQSPSIMDLVKCDGAAFLYHGKYYPLGVAPSEVQIKDVVEWLLANHADSTGLSTDSLGDAGYPGAAALGDAVCGMAVAYITKRDFLFWFRSHTAKEIKWGGAKHHPEDKDDGQRMHPRSSFQAFLEVVKSRSQPWETAEMDAIHSLQLILRDSFKESEAAMNSKVVDGVVQPCRDMAGEQGIDELGAVAREMVRLIETATVPIFAVDAGGCINGWNAKIAELTGLSVEEAMGKSLVSDLIYKENEATVNKLLSRALRGDEEKNVEVKLKTFSPELQGKAVFVVVNACSSKDYLNNIVGVCFVGQDVTSQKIVMDKFINIQGDYKAIVHSPNPLIPPIFAADENTCCLEWNMAMEKLTGWSRSEVIGKMIVGEVFGSCCMLKGPDALTKFMIVLHNAIGGQDTDKFPFPFFDRNGKFVQALLTANKRVSLEGKVIGAFCFLQIPSPELQQALAVQRRQDTECFTKAKELAYICQVIKNPLSGMRFANSLLEATDLNEDQKQLLETSVSCEKQISRIVGDMDLESIEDGSFVLKREEFFLGSVINAIVSQAMFLLRDRGLQLIRDIPEEIKSIEVFGVQIRIQQLLAEFLLSIIRYAPSQEWVEIHLSQLSKQMADGFAAIRTEFRMACPGEGLPPELVRDMFHSSRWTSPEGLGLSVCRKILKLMNGEVQYIRESERSYFLIILELPVPRKRPLSTASGSGDMMLMMPY
modifications: Pr or Pfr form (chromophore used not named for this experiment)
notes: Same chain as m21, with chromophore; not shown: HA, C-terminal, kept

B2: full-length PHYB18 (PHYB D1040V), N-terminal HA- or Myc-tagged (natural protein, Arabidopsis, UniProt P14713 1-1172, looked up)
chain: MVSGVGGSGGGRGGGRGGEEEPSSSHTPNNRRGGEQAQSSGTKSLRPRSNTESMSKAIQQYTVDARLHAVFEQSGESGKSFDYSQSLKTTTYGSSVPEQQITAYLSRIQRGGYIQPFGCMIAVDESSFRIIGYSENAREMLGIMPQSVPTLEKPEILAMGTDVRSLFTSSSSILLERAFVAREITLLNPVWIHSKNTGKPFYAILHRIDVGVVIDLEPARTEDPALSIAGAVQSQKLAVRAISQLQALPGGDIKLLCDTVVESVRDLTGYDRVMVYKFHEDEHGEVVAESKRDDLEPYIGLHYPATDIPQASRFLFKQNRVRMIVDCNATPVLVVQDDRLTQSMCLVGSTLRAPHGCHSQYMANMGSIASLAMAVIINGNEDDGSNVASGRSSMRLWGLVVCHHTSSRCIPFPLRYACEFLMQAFGLQLNMELQLALQMSEKRVLRTQTLLCDMLLRDSPAGIVTQSPSIMDLVKCDGAAFLYHGKYYPLGVAPSEVQIKDVVEWLLANHADSTGLSTDSLGDAGYPGAAALGDAVCGMAVAYITKRDFLFWFRSHTAKEIKWGGAKHHPEDKDDGQRMHPRSSFQAFLEVVKSRSQPWETAEMDAIHSLQLILRDSFKESEAAMNSKVVDGVVQPCRDMAGEQGIDELGAVAREMVRLIETATVPIFAVDAGGCINGWNAKIAELTGLSVEEAMGKSLVSDLIYKENEATVNKLLSRALRGDEEKNVEVKLKTFSPELQGKAVFVVVNACSSKDYLNNIVGVCFVGQDVTSQKIVMDKFINIQGDYKAIVHSPNPLIPPIFAADENTCCLEWNMAMEKLTGWSRSEVIGKMIVGEVFGSCCMLKGPDALTKFMIVLHNAIGGQDTDKFPFPFFDRNGKFVQALLTANKRVSLEGKVIGAFCFLQIPSPELQQALAVQRRQDTECFTKAKELAYICQVIKNPLSGMRFANSLLEATDLNEDQKQLLETSVSCEKQISRIVGDMDLESIEDGSFVLKREEFFLGSVINAIVSQAMFLLRDRGLQLIRDIPEEIKSIEVFGVQIRIQQLLAEFLLSIIRYAPSQEWVEIHLSQLSKQMADGFAAIRTEFRMACPGEGLPPELVRDMFHSSRWTSPEGLGLSVCRKILKLMNGEVQYIRESERSYFLIILELPVPRKRPLSTASGSGDMMLMMPY
notes: Two differently tagged copies: the bait copy has the HA tag, the prey copy the Myc tag (each copy has one tag only); also called HA-PHYB18; Myc-PHYB18; source: in vitro translated (TNT T7 Coupled Reticulocyte Lysate System), co-expressed; not shown: HA, N-terminal, kept; Myc, N-terminal, kept
fold reduction of the interaction against wild-type PHYB [2]: 5 fold

interaction relative to that of PHYB-HA [3]: ~0.33 fraction of wild type
B3: PHYB18-HA (PHYB D1040V), apoprotein (natural protein, Arabidopsis, UniProt P14713 1-1172, looked up)
chain: MVSGVGGSGGGRGGGRGGEEEPSSSHTPNNRRGGEQAQSSGTKSLRPRSNTESMSKAIQQYTVDARLHAVFEQSGESGKSFDYSQSLKTTTYGSSVPEQQITAYLSRIQRGGYIQPFGCMIAVDESSFRIIGYSENAREMLGIMPQSVPTLEKPEILAMGTDVRSLFTSSSSILLERAFVAREITLLNPVWIHSKNTGKPFYAILHRIDVGVVIDLEPARTEDPALSIAGAVQSQKLAVRAISQLQALPGGDIKLLCDTVVESVRDLTGYDRVMVYKFHEDEHGEVVAESKRDDLEPYIGLHYPATDIPQASRFLFKQNRVRMIVDCNATPVLVVQDDRLTQSMCLVGSTLRAPHGCHSQYMANMGSIASLAMAVIINGNEDDGSNVASGRSSMRLWGLVVCHHTSSRCIPFPLRYACEFLMQAFGLQLNMELQLALQMSEKRVLRTQTLLCDMLLRDSPAGIVTQSPSIMDLVKCDGAAFLYHGKYYPLGVAPSEVQIKDVVEWLLANHADSTGLSTDSLGDAGYPGAAALGDAVCGMAVAYITKRDFLFWFRSHTAKEIKWGGAKHHPEDKDDGQRMHPRSSFQAFLEVVKSRSQPWETAEMDAIHSLQLILRDSFKESEAAMNSKVVDGVVQPCRDMAGEQGIDELGAVAREMVRLIETATVPIFAVDAGGCINGWNAKIAELTGLSVEEAMGKSLVSDLIYKENEATVNKLLSRALRGDEEKNVEVKLKTFSPELQGKAVFVVVNACSSKDYLNNIVGVCFVGQDVTSQKIVMDKFINIQGDYKAIVHSPNPLIPPIFAADENTCCLEWNMAMEKLTGWSRSEVIGKMIVGEVFGSCCMLKGPDALTKFMIVLHNAIGGQDTDKFPFPFFDRNGKFVQALLTANKRVSLEGKVIGAFCFLQIPSPELQQALAVQRRQDTECFTKAKELAYICQVIKNPLSGMRFANSLLEATDLNEDQKQLLETSVSCEKQISRIVGDMDLESIEDGSFVLKREEFFLGSVINAIVSQAMFLLRDRGLQLIRDIPEEIKSIEVFGVQIRIQQLLAEFLLSIIRYAPSQEWVEIHLSQLSKQMADGFAAIRTEFRMACPGEGLPPELVRDMFHSSRWTSPEGLGLSVCRKILKLMNGEVQYIRESERSYFLIILELPVPRKRPLSTASGSGDMMLMMPY
notes: not shown: HA, C-terminal, kept
